Two molecules from US20110300157A1 (DYAX, published 2011) can be followed below.

Test [1] addresses T1, human TIMP-1 (R&D, 970-TM) (human, UniProt P01033 24-207).
T1 construct: also called huTIMP-1; h-TIMP-1
Put plainly: SPR Biacore 3000, antibody amine-coupled to CM5 chip (direct capture). The protocol: (§1) Experiments were performed at 25° C. with the help of a Biacore 3000 instrument. The MMP-9 binding protein (M0166F10) and the M0237-D02 antibody were coated to a CM5 chip either via standard amine coupling or using an anti-Fc antibody surface. Then either the active, human MMP-9 catalytic domain (BIOMOL, SE-244), the human pro-MMP-9 (R&D, 911-MP), the human TIMP-1 (R&D, 970-TM) or a h-MMP-9/h-TIMP-1 complex were flowed over the antibody surfaces, and binding was recorded.
(§2) It was shown that the human MMP-9 catalytic domain binds to M0166-F10, whether this antibody is directly captured via amine coupling or captured with an anti-Fc antibody surface.
A general note: In SPR one partner is held on a chip, and binding of the other changes the refractive index at the surface.

Test [2] has as its target T2, h-MMP-9/h-TIMP-1 complex (human, UniProt P14780 107-444; P01033 24-207, limits assumed).
T2 construct: also called huTIMP-1/cat-huMMP-9; MMP-9/TIMP-1 complex
Described as above. The protocol:
as §1, §2

Test [3] has as its target T3, human pro-MMP-9 (R&D, 911-MP) (human, UniProt P14780 20-707).
T3 construct: Zymogen form; also called Pro-huMMP-9
Described as above. The procedure:
as §1, §2

Test [4] addresses T4, active human MMP-9 catalytic domain (BIOMOL, SE-244) (human, UniProt P14780 107-444, limits assumed).
T4 construct: domain: catalytic domain; also called Cat-huMMP-9; cat-huMMP-9
Put plainly: plot of kobs vs antibody concentration from inhibition progress curves, 25 C. The procedure:
Materials: [0447] Substrate: Mca-KPLGL-Dap(Dnp)-AR-NH₂ (M-2350) from BACHEM (521575). A 10 mM stock solution was prepared in DMSO. [0448] Human MMP-9 catalytic domain (BIOMOL, SE-244). [0449] M0237-D02 hIgG1: 2517-068. [0450] All measurements were performed at 25° C. in TCNB: 50 mM Tris/HCl, 10 mM CaCl₂, 150 mM NaCl 0.05% Brij 35, pH 7.5. [0451] 96-well black plates from Perkin Elmer (6005270) [0452] Spectramax M2e to measure fluorescence emission of the substrate upon hydrolysis (λexc=328 nm and λₑₘ=393 nm)
The enzyme (at a final concentration ranging from 1.5 to 12.3 nM), the substrate (9 μM final) and the M0237-D02 antibody were mixed, and the fluorescence was immediately recorded in order to follow the hydrolysis of the substrate. The observed inhibition rate (kobs) was obtained by analyzing the progress curves with a single exponential. The value for kₒₙ and koff were calculated from the plot of the kobs vs. the antibody concentration using the following equation: […]

Test [5] addresses Mouse MMP-9 (R&D, 909-MM), APMA-activated (mouse, UniProt P41245 108-730, limits assumed). In words: enzyme inhibition with fluorogenic peptide substrate Mca-KPLGL-Dap(Dnp)-AR-NH2; Ki from IC50 vs substrate concentration, 30 C. The protocol: (§3) Materials: [0424] Substrate: Mca-KPLGL-Dap(Dnp)-AR-NH₂ (M-2350) from BACHEM (521575). A 10 mM stock solution was prepared in DMSO. [0425] Enzymes: [0426] Human MMP-9 catalytic domain (BIOMOL, SE-244). Enzyme concentration was measured by titration with TIMP-1 (2522-104) [0427] Mouse MMP-9 (R&D, 909-MM), APMA-activated. [0428] M0237-D02 hIgG1: 2517-014. Dialysed against TCN. [0429] TCNB: 50 mM Tris/HCl, 10 mM CaCl₂, 150 mM NaC, […] Brij 35, pH 7.5. [0430] 96-well black plates from Perkin Elmer (6005270) [0431] Spectramax M2e to measure fluorescence emission of the substrate upon hydrolysis (temperature control set at 30° C.; λexc=328 nm and λₑₘ=393 nm)
(§4) The enzyme (final concentration=0.23 and 0.17 nM for the human and mouse MMP-9, respectively) was preincubated with various concentrations (0-50 nM) of M0237-D02 for 1 h at 30° C. The substrate was then added to a final concentration ranging from 5 to 40 μM and initial rates were recorded.

Test [6] deals with T4, active human MMP-9 catalytic domain …. The test is described as above. The protocol:
as §3, §4

T4 sequence (P14780 107-444 limits assumed): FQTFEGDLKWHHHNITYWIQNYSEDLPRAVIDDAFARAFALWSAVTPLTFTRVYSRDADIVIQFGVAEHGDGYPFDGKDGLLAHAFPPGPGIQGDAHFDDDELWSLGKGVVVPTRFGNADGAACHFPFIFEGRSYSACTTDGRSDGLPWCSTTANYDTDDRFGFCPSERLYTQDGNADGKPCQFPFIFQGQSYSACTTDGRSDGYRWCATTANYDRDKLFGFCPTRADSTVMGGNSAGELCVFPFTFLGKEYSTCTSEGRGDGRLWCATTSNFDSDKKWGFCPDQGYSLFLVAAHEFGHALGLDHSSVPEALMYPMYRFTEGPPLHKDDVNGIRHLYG
T2 sequence (P14780 107-444 limits assumed, chain 1 of 2): as the sequence (P14780 107-444 limits assumed) above
T2 sequence (P01033 24-207 limits assumed, chain 2 of 2): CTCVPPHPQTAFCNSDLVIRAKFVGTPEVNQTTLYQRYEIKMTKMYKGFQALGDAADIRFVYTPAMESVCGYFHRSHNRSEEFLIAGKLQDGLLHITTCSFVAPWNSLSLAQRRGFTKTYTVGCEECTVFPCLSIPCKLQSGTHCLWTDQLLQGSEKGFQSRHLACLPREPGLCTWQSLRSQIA
T3 sequence (P14780 20-707): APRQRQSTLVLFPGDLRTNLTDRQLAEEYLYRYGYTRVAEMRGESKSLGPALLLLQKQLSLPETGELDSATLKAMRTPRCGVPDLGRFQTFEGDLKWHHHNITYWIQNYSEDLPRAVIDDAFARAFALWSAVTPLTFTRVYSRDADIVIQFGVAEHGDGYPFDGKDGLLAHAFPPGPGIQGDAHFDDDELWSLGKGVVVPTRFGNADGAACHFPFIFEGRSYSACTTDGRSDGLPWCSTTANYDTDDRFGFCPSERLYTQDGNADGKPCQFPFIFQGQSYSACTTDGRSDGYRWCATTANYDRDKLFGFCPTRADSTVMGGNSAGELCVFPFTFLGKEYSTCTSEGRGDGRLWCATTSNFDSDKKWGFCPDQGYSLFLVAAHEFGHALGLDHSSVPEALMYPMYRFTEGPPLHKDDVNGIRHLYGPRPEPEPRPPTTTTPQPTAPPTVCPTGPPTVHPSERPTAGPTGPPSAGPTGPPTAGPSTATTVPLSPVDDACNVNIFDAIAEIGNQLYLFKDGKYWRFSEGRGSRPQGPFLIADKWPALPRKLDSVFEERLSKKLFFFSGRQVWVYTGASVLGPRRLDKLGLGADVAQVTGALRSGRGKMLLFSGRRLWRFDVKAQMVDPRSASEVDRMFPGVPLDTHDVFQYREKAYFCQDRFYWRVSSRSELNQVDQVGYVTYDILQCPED
T1 sequence (P01033 24-207 limits assumed): as the sequence (P01033 24-207 limits assumed, chain 2 of 2) above
Chain of Mouse MMP-9 (R&D, 909-MM), APMA-activated (P41245 108-730 limits assumed): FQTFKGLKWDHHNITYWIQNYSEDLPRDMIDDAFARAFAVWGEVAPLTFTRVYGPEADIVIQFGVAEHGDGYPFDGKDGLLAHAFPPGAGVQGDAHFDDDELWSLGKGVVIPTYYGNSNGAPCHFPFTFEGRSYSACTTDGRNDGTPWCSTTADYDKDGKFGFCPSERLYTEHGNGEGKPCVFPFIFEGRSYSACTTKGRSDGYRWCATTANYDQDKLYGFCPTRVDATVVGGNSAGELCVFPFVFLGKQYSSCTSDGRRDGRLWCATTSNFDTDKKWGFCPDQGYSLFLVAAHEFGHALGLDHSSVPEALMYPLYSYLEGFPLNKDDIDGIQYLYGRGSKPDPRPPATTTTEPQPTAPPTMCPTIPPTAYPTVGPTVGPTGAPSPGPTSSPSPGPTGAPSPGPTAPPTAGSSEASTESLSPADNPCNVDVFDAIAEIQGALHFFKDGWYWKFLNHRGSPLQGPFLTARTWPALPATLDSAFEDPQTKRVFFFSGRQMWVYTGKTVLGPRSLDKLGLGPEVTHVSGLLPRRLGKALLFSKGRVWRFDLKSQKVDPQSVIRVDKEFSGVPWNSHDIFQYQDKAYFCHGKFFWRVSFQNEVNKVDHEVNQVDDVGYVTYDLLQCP

B1: 539A-M0166-F10 (antibody, V domains shown)
VH: EVQLLESGGGLVQPGGSLRLSCAASGFTFSPYLMNWVRQAPGKGLEWVSSIYSSGGGTGYADSVKGRFTISRDNSKNTLYLQMNSLRAEDTAVYYCARIYHSSSGPFYGMDVWGQGTTVTVSS
VL: QSELTQPPSASAAPGQRVTISCSGSSSNIGSNTVTWYQKLPGTAPKLLIYNNYERPSGVPARFSGSKSGTSASLAISGLQSEDEADYYCATWDDSLIANYVFGSGTKVTVLG
notes: also called DL15
In the case of B1, the binding result in test [1], in test [2] and in test [3] was “no binding” in each case.

B2: 539A-M0237-D02 hIgG1 (antibody, V domains shown)
VH: EVQLLESGGGLVQPGGSLRLSCAASGFTFSQYPMWWVRQAPGKGLEWVSYIVPSGGRTYYADSVKGRFTISRDNSKNTLYLQMNSLRAEDTAVYYCAKDRAYGDYVGWNGFDYWGQGTLVTVSS
VL: DIQMTQSPATLSLSPGERATLSCRASQSISSFLAWYQQKPGQAPRLLIYDASYRATGIPARFSGSGSGTDFTLTISSLEPEDYAVYYCQQRGNWPITFGQGTRLEIKR
notes: Tested as hIgG1; also called M237-D02; DL8
In general, koff refers to the first-order rate constant of dissociation. A low value points to slow dissociation. What is called kon is the second-order rate constant of association. Higher therefore signals faster complex formation. The Ki is a measure of affinity in units of concentration, obtained from inhibition or displacement. A higher Ki goes with a looser hold on the target. B2 yielded a koff in test [4] of roughly 0.0004 s⁻¹. In test [4], the kon is roughly 70000 M⁻¹ s⁻¹. Also, the Ki in test [5] was found to be 1.3 nM; in test [6], 0.92 nM. The binding result in test [2] was “no binding”.
